Data from patent publication US20140199714A1, “METHOD FOR DETECTING CANCER CELLS METASTASIZING INTO SENTINEL LYMPH NODE” (SHINSHU UNIVERSITY, priority 2008, published 2014).

Assays:
Assay type in all cases: cell-based
ICAM-1 on human LECs [1] = test: Immunohistochemical expression of ICAM-1 on cultured human LECs; conditions: 48 hrs. simultaneous treatment with 10^−7 or 10^−6M antagonist; n=5
Experimental: (§1) Using an indirect immunohistochemical technique, the inventors examined the effects of the supernatants of culture medium of two kinds of carcinoma cells, MDA-MB-231 and MCF-7, on the expression of adhesion molecules such as E-selectin, P-selectin, vascular cell adhesion molecule (VCAM)-1, and intercellular adhesion molecule (ICAM)-1 on the human LECs. The carcinoma cells were plated in DMEM/F12 with 10% FBS, which was replaced the following day with DMEM/F12 with 3% FBS, and then collected after overnight culture. The collected solution was centrifuged at 2,000 rpm for 5 min. at 4° C. To examine the effects of the supernatants on the expression of the adhesion molecules on the human LECs, 1 mL of each collected solution was added to starvation culture medium, EBM-2 with 3% FBS of the human LECs, and then stimulated for 48 hrs. on the cells. In some experiments, the supernatant solutions at different concentrations (1/100 or 1/10,000 dilution) were constructed with appropriate volumes of DMEM/F12 with 3% FBS.
Indirect immunohistochemical studies were performed on the cultured LECs seeded or glass slides coated with type I collagen, and then the cells were fixed with 3.3% formalin in phosphate-buffered saline solution (PBS), for 20 min. at room temperature. […]
In some experiments, the effects of 10 ng/mL CCL2 on the immunohistochemical expression of ICAM-1 on the human LECs were also evaluated using the same procedure as that mentioned above after overnight neutralization of CCL2 in the starvation culture medium with a CCL2 specific antibody (1.0 μg/mL). […]
To quantitatively examine the immunohistochemical data concerning the expression of ICAM-1 on the human LECs, the high-resolution digital microphotographs were processed using the SCION IMAGE analysis program. […]

[2] = system: attachment of carcinoma cells to human LECs; test: In vitro human LEC attachment assay (ATP or MDA-MB-231 supernatant stimulation); conditions: p<0.01, n=5
Experimental: The human LECs were plated to form a monolayer on type I collagen-coated 35 mm plates and incubated to confluence at 37° C. in 5% O2, 5% CO2, and 90% N2. The LECs were kept in serum-starved medium of EBM-2 with 3% FBS. Selected plates were treated with 10^−7M ATP or the supernatant of culture medium of MDA-MB-231 cells for 48 hrs. In some experiments, 10^−6M suramin was simultaneously added to the plates during 48 hrs. treatment with 10^−7M ATP or the culture medium supernatant of MDA-MB-231 cells.
In some experiments, the plates were also treated with anti-human-ICAM-1 antibody (available from R&D Systems, US) for 30 min after 48 hrs. treatment with the culture medium supernatant of MDA-MB-231 or 10^−7M ATP. Breast carcinoma cells stained with PKH26 fluorescent dye (available from SIGMA, US) were then plated at 5×10^4 cells per plate and incubated for 30 min. at 37° C. Unbound cells were removed by aspiration and the plates washed with DMEM/F12 three times. Attachment was quantitated by counting cells under ×100 magnification using a microscope (available from Leica, Switzerland).

ICAM-1 on human LECs [3] = test: Immunohistochemical expression of ICAM-1 on cultured human LECs; conditions: for staining with ICAM-1 on human LECs: 48 hrs. treatment with 100 ng/mL IL-6, 100 ng/mL VEGF-A, or 500 ng/mL VEGF-C; for expression of ICAM-1 on human LECs: 18 hrs.-stimulation with 10 ng/mL chemokine
[4] = system: F-actin in LECs derived from human collecting lymph vessel; test: Staining of cytoskeletal protein F-actin in human LECs; conditions: 10 ng/mL TNF-α; 1 ng/mL and 10 ng/mL IL-1β; 2 hrs. at 37° C.; vs negative control
Experimental: LECs derived from human collecting lymph vessel, which were transplanted into a culture system, were plated on glass slide, and repeatedly subcultured to confluence. Stimulating factors of 10 ng/mL of tumor necrosis factor-α (TNF-α) of Catalog No. T-0157 (available from SIGMA, US), 1 ng/mL and 10 ng/mL of interleukin-1β (IL-1β) of Catalog No. 200-01B (available from PeproTech, US) were respectively dissolved in EBM-2 containing 3% FBS of Catalog No. CC-3156 (available from Sankyo Junyaku Co., Ltd., Japan) and added onto the cells, and then the cells were incubated for 2 hrs. at 37° C. They were fixed with 3.7% formalin. They were washed with PBS solution, and then still stood in PBS solution containing 0.1% TRITON X-100 of Catalog No. X-100 (available from SIGMA, US) for 5 min. Additionally they were washed with PBS solution, and then phalloidin-FITC antibody of Catalog No. P-5282 (available from SIGMA, US) diluted 500 times with PBS solution containing 0.1% BSA was added thereto. They were still stood for 2 hrs. at room temperature. After they were washed with PBS solution, and mounted in MOBI GLOW MOUNTING MEDIUM. Also negative control was similarly prepared except for using no stimulating factor. […] The LECs of the negative control without the stimulating factor indicate obscure green fluorescence, and there were few expression of F-actin.

E-selectin on human LECs = test: Immunohistochemical expression of E-selectin on cultured human LECs
Experimental: as §1
(§2) Indirect immunohistochemical studies were performed on the cultured LECs seeded or glass slides coated with type I collagen, and then the cells were fixed with 3.3% formalin in phosphate-buffered saline solution (PBS), for 20 min. at room temperature. The cells were washed three times with PBS, and then incubated overnight at 4° C. with primary polyclonal human antisera to E-selectin/CD62E (dilution 10 μg/mL, available from R&D Systems, US), P-selectin/CD62P (dilution 10 μg/mL, available from R&D Systems, US), VCAM-1/CD106 (dilution 10 μg/mL, available from R&D Systems, US), and ICAM-1/CD54 (dilution 10 μg/mL, available from R&D Systems, US).
(§3) Before primary staining, the cultured cells were permeabilized with 0.1% TRITON-X. After washing three times in PBS, the cells were incubated for 1 hr. at room temperature with 1:100 diluted ALEXA FLUOR 488 donkey anti-mouse IgG (available from Invitrogen, US). The nuclei of cultured cells were counter-stained and mounted with PROLONG GOLD antifade reagent with 4′-6-diamidine-2-phenylindole (DAPI) (available from Molecular Probes, US), examined by a fluorescent microscope (Leica, Switzerland), and photographed.
(§4) Immunohistochemistry was performed on the cultured human LECs or the fresh-frozen SLNs isolated from the breast cancer patients. In brief, the cultured LECs were fixed with 10% formalin in the phosphate-buffered saline solution (PBS) at room temperature. The cells were incubated for 4 hrs. at room temperature with primary polyclonal human antisera platelet-endothelial cell adhesion molecule (PECAM)-1 (dilution 1:100, available from BD Biosciences, US), lymphatic vessel endothelial hyaluronan receptor (LYVE)-1 (dilution 1:50, available from RELIATech, Germany), PROX-1 (dilution 1:50, available from AngioBio, US), podoplanin (dilution 1:50, available from AngioBio, US), vascular endothelium growth factor receptor 3 (VEGF R3) (dilution 1:50, available from Santa Cruz, US), E-selectin/CD62E (dilution 1:50, available from R&D systems, US), P-selectin/CD62P (dilution 1:50, available from R&D systems, US), vascular cell adhesion molecule (VCAM)-1/CD106 (dilution 1:50, available from R&D systems, US), and intercellular adhesion molecule (ICAM)-1/CD54 (dilution 1:50, available from R&D systems, US). Before the staining, permeabilization of the cultured cells with 0.1% TRITON-X was performed. Then, the cells were stained using the following antibodies: ALEXA FLUOR 488 chicken anti-rabbit IgG or ALEXA FLUOR 488 donkey anti-mouse IgG (available from Invitrogen, US). The nuclei of the cultured cells were counter-stained and mounted with ProLong Gold antifade reagent with 4′-6-diamidine-2-phenylindole (DAPI) (available from Molecular Probes, US). The cultured cells were examined by a fluorescent microscope (available from Leica, Germany) and photographed. […]

P-selectin on human LECs = test: Immunohistochemical expression of P-selectin on cultured human LECs; conditions: 48 hrs. treatment with 100 ng/mL IL-6, 100 ng/mL VEGF-A, or 500 ng/mL VEGF-C
Experimental: as §1, §2
Before primary staining, the cultured cells were permeabilized with 0.1% TRITON-X. After washing three times in PBS, the cells were incubated for 1 hr. at room temperature with 1:100 diluted ALEXA FLUOR 488 donkey anti-mouse IgG (available from Invitrogen, US). […]

VCAM-1 on human LECs = test: Immunohistochemical expression of VCAM-1 on cultured human LECs; conditions: for staining with VCAM-1 on human LECs: 48 hrs. treatment with 100 ng/mL IL-6, 100 ng/mL VEGF-A, or 500 ng/mL VEGF-C; for expression of VCAM-1 on human LECs: 18 hrs.-stimulation with 10 ng/mL chemokine
Experimental: as §1, §2, §3, §4

human LECs = test: Proliferative ability of human LECs with lymphangiogenic factors
[5] = 48 hrs. treatment with 100 ng/mL IL-6, 100 ng/mL VEGF-A, or 500 ng/mL VEGF-C
[6] = 18 hrs.-stimulation with 10 ng/mL chemokine

`C#CCn1c(=O)c2c(ncn2C)n(C)c1=O` [DMPX, 3,7-dimethyl-1-propargyl xanthine] was tested, and the “effect on MDA-MB-231 supernatant-mediated expression of ICAM-1 on human LECs” value (“effect … on human LECs” below) (ICAM-1 on human LECs [1]) was “no significant effect”.

`CCCn1c(=O)c2[nH]c(C3CCCC3)nc2n(CCC)c1=O` [DPCPX, 8-cyclopentyl-1,3-dipropylxanthine] was tested, and the “effect … on human LECs” value (ICAM-1 on human LECs [1]) was “no significant effect”.

With `Cc1ccc(C(=O)Nc2ccc(S(=O)(=O)O)c3cc(S(=O)(=O)O)cc(S(=O)(=O)O)c23)cc1NC(=O)c1cccc(NC(=O)Nc2cccc(C(=O)Nc3cc(C(=O)Nc4ccc(S(=O)(=O)O)c5cc(S(=O)(=O)O)cc(S(=O)(=O)O)c45)ccc3C)c2)c1` [suramin] the “effect … on human LECs” value (ICAM-1 on human LECs [1]) was “significant reduction”, the “effect on MDA-MB-231 supernatant-mediated increase of attachment of carcinoma cells to human LECs” value ([2]; 48 hrs. simultaneous treatment with 10^−6M suramin) was “significant reduction” and the “effect on ATP-mediated increased attachment of carcinoma cells to LECs” value ([2]; simultaneous treatment with 10^−6M suramin, 10^−7M ATP 48 hrs.) was “significantly reduced”. The “effect on ATP-mediated expression of ICAM-1 on LECs” value (ICAM-1 on human LECs [3]; simultaneous treatment with 10^−7M or 10^−6M suramin, 10^−7M ATP, p<0.01, n=5) was “significant reduction”.

“IL-1β: interleukin-1β, stimulating factor” was tested, and the “expression of F-actin (phalloidin-FITC fluorescence)” value [4] was “increase of expression of F-actin”.

In the case of IL-6: cytokine, the “expression of E-selectin on human LECs” value (E-selectin on human LECs; [5]) is reported as “No or little expression”, the “staining by P-selectin antiserum on human LECs” value (P-selectin on human LECs) is reported as “strongly stained” and the “staining with VCAM-1 on human LECs” value (VCAM-1 on human LECs) is reported as “Slight staining”. The “staining with ICAM-1 on human LECs” value (ICAM-1 on human LECs [3]) was “Slight staining”.

For VEGF, the “proliferative ability of the LECs” value (human LECs) was “Sthenia of proliferative ability”.

For “basic-FGF: basic fibroblast growth factor, lymphangiogenic factor”, the “proliferative ability of the LECs” value (human LECs) was “Sthenia of proliferative ability”.

B1: VEGF-C: growth factor; lymphangiogenic factor (protein, UniProt P49767 112-227, looked up)
Vascular endothelial growth …: AHYNTEILKSIDNEWRKTQCMPREVCIDVGKEFGVATNTFFKPPCVSVYRCGGCCNSEGLQCMNTSTSYLSKTLFEITVPLSQGPKPVTISFANHTSCRCMSKLDVYRQVHSIIRR
With B1 the “expression of E-selectin on human LECs” value (E-selectin on human LECs; [5]) was “No or little expression”, the “staining by P-selectin antiserum on human LECs” value (P-selectin on human LECs) was “strongly stained” and the “staining with VCAM-1 on human LECs” value (VCAM-1 on human LECs) was “Slight staining”. For the same molecule, the “proliferative ability of the LECs” value (human LECs) was “Sthenia of proliferative ability” and the “staining with ICAM-1 on human LECs” value (ICAM-1 on human LECs [3]) was “Slight staining”.

B2: CCL1: chemokine (protein, UniProt P22362 24-96, looked up)
C-C motif chemokine 1: KSMQVPFSRCCFSFAEQEIPLRAILCYRNTSSICSNEGLIFKLKRGKEACALDTVGWVQRHRKMLRHCPSKRK
B2 was tested, and the “expression of E-selectin on human LECs” value (E-selectin on human LECs; [6]) was “Little or no expression”, the “expression of VCAM-1 on human LECs” value (VCAM-1 on human LECs) was “Little or no expression” and the “expression of ICAM-1 on human LECs” value (ICAM-1 on human LECs [3]) was “slight staining”.

B3: CCL12: chemokine (protein, UniProt Q62401 23-104, looked up)
C-C motif chemokine 12: GPDAVSTPVTCCYNVVKQKIHVRKLKSYRRITSSQCPREAVIFRTILDKEICADPKEKWVKNSINHLDKTSQTFILEPSCLG
With B3 the “expression of E-selectin on human LECs” value (E-selectin on human LECs; [6]) was “Little or no expression”, the “expression of VCAM-1 on human LECs” value (VCAM-1 on human LECs) was “Little or no expression” and the “expression of ICAM-1 on human LECs” value (ICAM-1 on human LECs [3]) was “slight staining”.

B4: CCL21: chemokine (protein, UniProt O00585 24-134, looked up)
C-C motif chemokine 21: SDGGAQDCCLKYSQRKIPAKVVRSYRKQEPSLGCSIPAILFLPRKRSQAELCADPKELWVQQLMQHLDKTPSPQKPAQGCRKDRGASKTGKKGKGSKGCKRTERSQTPKGP
With B4 the “expression of E-selectin on human LECs” value (E-selectin on human LECs; [6]) was “Little or no expression”, the “expression of VCAM-1 on human LECs” value (VCAM-1 on human LECs) was “Little or no expression” and the “expression of ICAM-1 on human LECs” value (ICAM-1 on human LECs [3]) was “slight staining”.
